This assay has as its target BCL6-POZ domain (residues 7 to 128 of human BCL6, C8Q, C67R, C84N) (human, UniProt P41182 7-128, cysteine8 mutated to glutamine | cysteine67 mutated to arginine | cysteine84 …). Put plainly: fluorescence polarisation; fixed concentration of BODIPY TMR-labelled SMRT peptide, increasing concentration of BCL6-POZ domain; PBS, 0.05% (v/v) Triton X-100, 0.1 mg/mL BSA; room temperature; triplicate; one-site binding (hyperbola) fit. The conditions noted are these: both partners purified. In general terms: In fluorescence polarisation assays a small probe gives low polarisation when free and higher when bound to something large.

Data on two molecules can be found in paper PMC3942486, “The Ansamycin Antibiotic, Rifamycin SV, Inhibits BCL6 Transcriptional Repression and Forms a Complex with the BCL6-BTB/POZ Domain” (PLoS ONE, 2014).

B1: 1-naphthyl-SMRT peptide, labelled with BODIPY TMR (peptide)
chain: LVATVKEAGRSIXEIPR
modifications: 1-naphthylalanine in place of histidine1426; BODIPY TMR dye coupled via the amino-terminal cysteine
With B1, the affinity, expressed as Kd, was 11 µM. This lies in the double-digit micromolar range.

B2: 2-naphthyl-SMRT peptide, labelled with BODIPY TMR (peptide)
chain: LVATVKEAGRSIXEIPR
modifications: 2-naphthylalanine in place of histidine1426; BODIPY TMR dye coupled via the amino-terminal cysteine
In the case of B2, the Kd (commonly the free concentration of one partner at which half of the binding sites on the other are occupied at equilibrium, for simple one-to-one binding) was determined as 154 µM.
